For two molecules, Kd results are on record in publication PMC4172209 (2014).

Where no end group is shown, it is not given here. The star is where a group is joined. FITC = O=C1OC2(c3ccc(O)cc3Oc3cc(O)ccc32)c2ccc(NC(=S)*)cc21; βAla = NCCC(=O)O

The target of test [1] is NHERF1 PDZ1 (Homo sapiens) (UniProt O14745). To be noted: cited from earlier work.
In test [2] the target is T1, PTH1R C-terminal peptide (FITC-PTH1Rct) (Homo sapiens).
T1 chain: {FITC-βAla}-PERPPALLQEEWETVM
Put plainly: fluorescence polarization. For orientation: Fluorescence polarisation rises when a labelled molecule tumbles more slowly, as on binding a larger partner.

Broadly, the Kd is the concentration at which binding is half-saturated. In the case of “PTH1R C-terminal peptide C-terminus (from UniProt Q03431)”, in test [1], the Kd is 11 µM.

B1: NHERF1 PDZ1 1-140 (protein)
chain: MSADAAAGAPLPRLCCLEKGPNGYGFHLHGEKGKLGQYIRLVEPGSPAEKAGLLAGDRLVEVNGENVEKETHQQVVSRIRAALNAVRLLVVDPETDEQLQKLGVQVREELLRAQEAPGQAEPPAAAEVQGAGNENEPREA
The molecule B1 registered a Kd in test [2] of 19 µM.
